{"source": "patent US7666414B2", "about": "“Methods for treating prostate cancer using modified antibodies to prostate-specific membrane antigen” (Cornell Research Foundation, Inc., dated 2010)", "molecular_target": "prostate specific membrane antigen (PSMA) on LNCaP cells (human, UniProt Q04609)", "assay": "ELISA on plates coated with LNCaP membrane preparation, purified antibody", "data": [{"binder": "deimmunized J415, heavy chain version 1 with light chain version 5 (antibody, V domains shown) VH: EVKLEESGGGLVQPGGSMKISCKASGFTFSNYWMNWVRQTPEKGLEWVALIRSQSNNFATHYAESVKGRVIISRDDSKSSVYLQMNSLRAEDTAVYYCTRRWNNFWGQGTTVTVSS VL: NIVMTQFPKSMSASAGERMTLTCKASENVGTYVSWYQQKPTQSPKMLIYGASNRFTGVPDRFSGSGSGTDFILTISSVQAEDLVDYYCGQSYTFPYTFGGGTKLEMK", "values": [{"measurement": "fold change against the chimeric antibody", "result": 2, "unit": "fold less"}]}, {"binder": "deimmunized J415, heavy chain version 2 with light chain version 5 (antibody, V domains shown) VH: EVKLEESGGGLVQPGGSMKISCVASGFTFSNYWMNWVRQTPEKGLEWVALIRSQSNNFATHYAESVKGRVIISRDDSKSSVYLQMNSLRAEDTAVYYCTRRWNNFWGQGTTVTVSS VL: NIVMTQFPKSMSASAGERMTLTCKASENVGTYVSWYQQKPTQSPKMLIYGASNRFTGVPDRFSGSGSGTDFILTISSVQAEDLVDYYCGQSYTFPYTFGGGTKLEMK", "values": [{"measurement": "fold change against the chimeric antibody", "result": 2, "unit": "fold less"}]}]}
